Source: US20250145696A1 (BIOVERATIV USA, published 2025)

Molecular target: T1, human C1s (human, UniProt P09871 16-688)
T1 sequence: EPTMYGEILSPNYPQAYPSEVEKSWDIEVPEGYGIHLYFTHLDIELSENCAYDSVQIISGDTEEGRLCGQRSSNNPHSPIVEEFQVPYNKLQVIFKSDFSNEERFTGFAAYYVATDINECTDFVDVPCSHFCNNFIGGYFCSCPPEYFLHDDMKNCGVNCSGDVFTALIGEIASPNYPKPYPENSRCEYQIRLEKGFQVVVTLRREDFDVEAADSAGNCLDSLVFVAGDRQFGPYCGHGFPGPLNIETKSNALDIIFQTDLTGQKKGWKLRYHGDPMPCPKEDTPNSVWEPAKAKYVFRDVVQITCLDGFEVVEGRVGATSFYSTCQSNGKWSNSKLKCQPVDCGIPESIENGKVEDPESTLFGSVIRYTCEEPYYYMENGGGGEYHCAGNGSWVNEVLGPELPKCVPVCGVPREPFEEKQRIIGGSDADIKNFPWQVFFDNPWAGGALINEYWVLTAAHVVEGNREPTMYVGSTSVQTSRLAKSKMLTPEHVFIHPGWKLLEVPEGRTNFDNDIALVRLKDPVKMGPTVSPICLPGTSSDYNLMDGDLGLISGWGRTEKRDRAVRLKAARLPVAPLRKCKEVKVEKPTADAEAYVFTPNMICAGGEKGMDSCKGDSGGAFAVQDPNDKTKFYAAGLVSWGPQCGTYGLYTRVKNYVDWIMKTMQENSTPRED
Test: cell-based or functional assay

IC50 (concentration associated to 50% of the maximum effect) on serum classical complement pathway (CP) activity, WIESLAB assay, inhibitory Emax model: 6.2 µg/mL
B1: BIVV009 (antibody, human IgG4 S228P, kappa, V domains shown)
VH: EVQLVESGGGLVKPGGSLRLSCAASGFTFSNYAMSWVRQAPGKGLEWVATISSGGSHTYYLDSVKGRFTISRDNSKNTLYLQMNSLRAEDTALYYCARLFTGYAMDYWGQGTLVTVSS
VL: QIVLTQSPATLSLSPGERATMSCTASSSVSSSYLHWYQQKPGKAPKLWIYSTSNLASGVPSRFSGSGSGTDYTLTISSLQPEDFATYYCHQYYRLPPITFGQGTKLEIKR
